In patent US20150087577A1 (POLYPHOR, published 2015):
Bridges are numbered along the chain shown (N, C = ends). [ ]: non-standard residue; d: D form. 2Nal = N[C@@H](Cc1ccc2ccccc2c1)C(=O)O; Cit = NC(=O)NCCC[C@H](N)C(=O)O; Dab = NCC[C@H](N)C(=O)O

B1: Example 105 (peptide)
peptide: cyclo(YH[Cit]CRG[dP]RRWCY[Cit]K[dP]P)
modifications: disulfide 4-11
SMILES: N=C(N)NCCC[C@@H]1NC(=O)[C@@H]2CSSC[C@H](NC(=O)[C@H](Cc3c[nH]c4ccccc34)NC(=O)[C@H](CCCNC(=N)N)NC(=O)[C@H](CCCNC(=N)N)NC(=O)[C@H]3CCCN3C(=O)CNC1=O)C(=O)N[C@@H](Cc1ccc(O)cc1)C(=O)N[C@@H](CCCNC(N)=O)C(=O)N[C@@H](CCCCN)C(=O)N1CCC[C@@H]1C(=O)N1CCC[C@H]1C(=O)N[C@@H](Cc1ccc(O)cc1)C(=O)N[C@@H](Cc1c[nH]cn1)C(=O)N[C@@H](CCCNC(N)=O)C(=O)N2
B2: Example 104 (peptide)
peptide: cyclo(YRTCRG[dP][Dab]R[2Nal]CYQK[dP]P)
modifications: disulfide 4-11
SMILES: C[C@@H](O)[C@@H]1NC(=O)[C@H](CCCNC(=N)N)NC(=O)[C@H](Cc2ccc(O)cc2)NC(=O)[C@@H]2CCCN2C(=O)[C@H]2CCCN2C(=O)[C@H](CCCCN)NC(=O)[C@H](CCC(N)=O)NC(=O)[C@H](Cc2ccc(O)cc2)NC(=O)[C@@H]2CSSC[C@H](NC1=O)C(=O)N[C@@H](CCCNC(=N)N)C(=O)NCC(=O)N1CCC[C@@H]1C(=O)N[C@@H](CCN)C(=O)N[C@@H](CCCNC(=N)N)C(=O)N[C@@H](Cc1ccc3ccccc3c1)C(=O)N2
B3: Example 109 (peptide)
peptide: cyclo(YR[Cit]CRG[dP][Dab]RWCYQK[dP]P)
modifications: disulfide 4-11
SMILES: N=C(N)NCCC[C@@H]1NC(=O)[C@@H]2CSSC[C@H](NC(=O)[C@H](Cc3c[nH]c4ccccc34)NC(=O)[C@H](CCCNC(=N)N)NC(=O)[C@H](CCN)NC(=O)[C@H]3CCCN3C(=O)CNC1=O)C(=O)N[C@@H](Cc1ccc(O)cc1)C(=O)N[C@@H](CCC(N)=O)C(=O)N[C@@H](CCCCN)C(=O)N1CCC[C@@H]1C(=O)N1CCC[C@H]1C(=O)N[C@@H](Cc1ccc(O)cc1)C(=O)N[C@@H](CCCNC(=N)N)C(=O)N[C@@H](CCCNC(N)=O)C(=O)N2
B4: Example 103 (peptide)
peptide: cyclo(YR[Cit]CRG[dP]RR[2Nal]CY[Cit]E[dP]P)
modifications: disulfide 4-11
SMILES: N=C(N)NCCC[C@@H]1NC(=O)[C@@H]2CSSC[C@H](NC(=O)[C@H](Cc3ccc4ccccc4c3)NC(=O)[C@H](CCCNC(=N)N)NC(=O)[C@H](CCCNC(=N)N)NC(=O)[C@H]3CCCN3C(=O)CNC1=O)C(=O)N[C@@H](Cc1ccc(O)cc1)C(=O)N[C@@H](CCCNC(N)=O)C(=O)N[C@@H](CCC(=O)O)C(=O)N1CCC[C@@H]1C(=O)N1CCC[C@H]1C(=O)N[C@@H](Cc1ccc(O)cc1)C(=O)N[C@@H](CCCNC(=N)N)C(=O)N[C@@H](CCCNC(N)=O)C(=O)N2
B5: Example 107 (peptide)
peptide: cyclo(FR[Cit]CRG[dP]RRWCY[Cit]K[dP]P)
modifications: disulfide 4-11
SMILES: N=C(N)NCCC[C@@H]1NC(=O)[C@@H]2CSSC[C@H](NC(=O)[C@H](Cc3c[nH]c4ccccc34)NC(=O)[C@H](CCCNC(=N)N)NC(=O)[C@H](CCCNC(=N)N)NC(=O)[C@H]3CCCN3C(=O)CNC1=O)C(=O)N[C@@H](Cc1ccc(O)cc1)C(=O)N[C@@H](CCCNC(N)=O)C(=O)N[C@@H](CCCCN)C(=O)N1CCC[C@@H]1C(=O)N1CCC[C@H]1C(=O)N[C@@H](Cc1ccccc1)C(=O)N[C@@H](CCCNC(=N)N)C(=O)N[C@@H](CCCNC(N)=O)C(=O)N2
B6: Example 111 (peptide)
peptide: cyclo(YR[Cit]C[Dab]G[dP]RRWCYQK[dP]P)
modifications: disulfide 4-11
SMILES: N=C(N)NCCC[C@@H]1NC(=O)[C@H](CCCNC(=N)N)NC(=O)[C@H]2CCCN2C(=O)CNC(=O)[C@H](CCN)NC(=O)[C@@H]2CSSC[C@H](NC(=O)[C@H](Cc3c[nH]c4ccccc34)NC1=O)C(=O)N[C@@H](Cc1ccc(O)cc1)C(=O)N[C@@H](CCC(N)=O)C(=O)N[C@@H](CCCCN)C(=O)N1CCC[C@@H]1C(=O)N1CCC[C@H]1C(=O)N[C@@H](Cc1ccc(O)cc1)C(=O)N[C@@H](CCCNC(=N)N)C(=O)N[C@@H](CCCNC(N)=O)C(=O)N2
B7: Example 21 (peptide)
peptide: cyclo(YR[Cit]FRV[dP]RR[2Nal]VY[Cit]K[dP]P)
SMILES: CC(C)[C@@H]1NC(=O)[C@H](Cc2ccc3ccccc3c2)NC(=O)[C@H](CCCNC(=N)N)NC(=O)[C@H](CCCNC(=N)N)NC(=O)[C@H]2CCCN2C(=O)[C@H](C(C)C)NC(=O)[C@H](CCCNC(=N)N)NC(=O)[C@H](Cc2ccccc2)NC(=O)[C@H](CCCNC(N)=O)NC(=O)[C@H](CCCNC(=N)N)NC(=O)[C@H](Cc2ccc(O)cc2)NC(=O)[C@@H]2CCCN2C(=O)[C@H]2CCCN2C(=O)[C@H](CCCCN)NC(=O)[C@H](CCCNC(N)=O)NC(=O)[C@H](Cc2ccc(O)cc2)NC1=O
B8: Example 106 (peptide)
peptide: cyclo(YK[Cit]CRG[dP]RRWCY[Cit]K[dP]P)
modifications: disulfide 4-11
SMILES: N=C(N)NCCC[C@@H]1NC(=O)[C@@H]2CSSC[C@H](NC(=O)[C@H](Cc3c[nH]c4ccccc34)NC(=O)[C@H](CCCNC(=N)N)NC(=O)[C@H](CCCNC(=N)N)NC(=O)[C@H]3CCCN3C(=O)CNC1=O)C(=O)N[C@@H](Cc1ccc(O)cc1)C(=O)N[C@@H](CCCNC(N)=O)C(=O)N[C@@H](CCCCN)C(=O)N1CCC[C@@H]1C(=O)N1CCC[C@H]1C(=O)N[C@@H](Cc1ccc(O)cc1)C(=O)N[C@@H](CCCCN)C(=O)N[C@@H](CCCNC(N)=O)C(=O)N2
B9: Example 108 (peptide)
peptide: cyclo(YR[Cit]CRG[dP]RRWCYQK[dP]P)
modifications: disulfide 4-11
SMILES: N=C(N)NCCC[C@@H]1NC(=O)[C@@H]2CSSC[C@H](NC(=O)[C@H](Cc3c[nH]c4ccccc34)NC(=O)[C@H](CCCNC(=N)N)NC(=O)[C@H](CCCNC(=N)N)NC(=O)[C@H]3CCCN3C(=O)CNC1=O)C(=O)N[C@@H](Cc1ccc(O)cc1)C(=O)N[C@@H](CCC(N)=O)C(=O)N[C@@H](CCCCN)C(=O)N1CCC[C@@H]1C(=O)N1CCC[C@H]1C(=O)N[C@@H](Cc1ccc(O)cc1)C(=O)N[C@@H](CCCNC(=N)N)C(=O)N[C@@H](CCCNC(N)=O)C(=O)N2
B10: Example 110 (peptide)
peptide: cyclo(YRTCRG[dP][Dab]RWCYQK[dP]P)
modifications: disulfide 4-11
SMILES: C[C@@H](O)[C@@H]1NC(=O)[C@H](CCCNC(=N)N)NC(=O)[C@H](Cc2ccc(O)cc2)NC(=O)[C@@H]2CCCN2C(=O)[C@H]2CCCN2C(=O)[C@H](CCCCN)NC(=O)[C@H](CCC(N)=O)NC(=O)[C@H](Cc2ccc(O)cc2)NC(=O)[C@@H]2CSSC[C@H](NC1=O)C(=O)N[C@@H](CCCNC(=N)N)C(=O)NCC(=O)N1CCC[C@@H]1C(=O)N[C@@H](CCN)C(=O)N[C@@H](CCCNC(=N)N)C(=O)N[C@@H](Cc1c[nH]c3ccccc13)C(=O)N2

Each binder was assayed against human CXCR4 (human, UniProt P61073 1-352) (assay: cell-based or functional assay).
human CXCR4, sequence (P61073 whole entry): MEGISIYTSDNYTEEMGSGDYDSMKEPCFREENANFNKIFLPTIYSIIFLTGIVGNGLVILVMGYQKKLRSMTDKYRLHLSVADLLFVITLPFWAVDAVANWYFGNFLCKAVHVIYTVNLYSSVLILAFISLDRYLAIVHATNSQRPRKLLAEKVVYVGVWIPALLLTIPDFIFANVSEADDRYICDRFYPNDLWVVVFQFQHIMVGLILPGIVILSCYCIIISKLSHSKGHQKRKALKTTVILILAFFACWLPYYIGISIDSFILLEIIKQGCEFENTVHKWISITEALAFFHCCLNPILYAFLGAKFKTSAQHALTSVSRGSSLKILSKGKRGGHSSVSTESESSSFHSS

| Binder | IC50 (nM) Ca2+ assay (method 2) [nM] | IC50 (nM) Ca2+ assay (method 1) [nM] |
| --- | --- | --- |
| B1 | 0.62 |  |
| B2 | 7.4 |  |
| B3 | 3 |  |
| B4 | 18.3 |  |
| B5 | 3.8 |  |
| B6 | 1.6 |  |
| B7 |  | 550 |
| B8 | 3.1 |  |
| B9 | 4.6 |  |
| B10 | 1.7 |  |
